Reference: patent US20240400677A1 (ELECTRA THERAPEUTICS, published 2024)

How the values were obtained:
[1] = biological target: T1, cynomolgus monkey SIRPγ on CHO cells (cynomolgus monkey, UniProt Q9P1W8 29-386 (human entry)); assay: flow cytometry, CHO transfectants, anti-human IgG
T1 construct: also called Cyno SIRPγ CHO
T1 chain: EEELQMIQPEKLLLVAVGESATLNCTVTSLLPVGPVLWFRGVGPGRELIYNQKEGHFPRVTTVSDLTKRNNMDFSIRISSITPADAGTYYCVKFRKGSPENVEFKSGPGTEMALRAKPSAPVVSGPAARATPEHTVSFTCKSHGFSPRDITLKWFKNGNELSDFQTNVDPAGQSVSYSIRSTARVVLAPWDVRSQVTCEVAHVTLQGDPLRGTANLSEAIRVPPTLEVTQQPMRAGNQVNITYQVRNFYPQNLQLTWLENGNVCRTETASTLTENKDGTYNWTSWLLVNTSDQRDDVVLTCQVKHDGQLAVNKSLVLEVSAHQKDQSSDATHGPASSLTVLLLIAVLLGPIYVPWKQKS
Outline: (§1)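 Antibodies are titrated onto CHO cells stably expressing the SIRP protein, then detected with fluorescent anti-human IgG. MFI is plotted against concentration. Crude PPE containing myc-tagged scFv is tested against the same lines and parental CHO-K1, with fold change <2.0 taken as non-binding.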

[2] = biological target: T2, cynomolgus monkey SIRPα on CHO cells (cynomolgus monkey, UniProt A0A2K5VYQ9 31-507); assay: flow cytometry, CHO transfectants, anti-human IgG
T2 construct: whole, on cells; also called Cyno SIRPα CHO
T2 sequence: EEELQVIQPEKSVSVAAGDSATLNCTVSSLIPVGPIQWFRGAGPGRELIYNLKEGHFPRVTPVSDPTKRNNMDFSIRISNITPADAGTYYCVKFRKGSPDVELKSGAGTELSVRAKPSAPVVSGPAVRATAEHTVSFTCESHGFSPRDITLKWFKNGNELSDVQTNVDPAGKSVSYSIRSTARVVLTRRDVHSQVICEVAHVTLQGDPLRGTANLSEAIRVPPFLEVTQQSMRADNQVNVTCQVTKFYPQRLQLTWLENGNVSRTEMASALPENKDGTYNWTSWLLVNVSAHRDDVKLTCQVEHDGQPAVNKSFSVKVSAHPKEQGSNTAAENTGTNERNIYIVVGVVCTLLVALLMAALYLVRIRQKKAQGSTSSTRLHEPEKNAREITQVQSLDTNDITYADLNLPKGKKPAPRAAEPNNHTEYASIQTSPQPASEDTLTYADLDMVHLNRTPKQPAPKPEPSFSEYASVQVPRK
Outline: as §1

[3] = biological target: T3, human SIRPβ1 on CHO cells (co-transfected with DAP12) (human, UniProt O00241 30-398); assay: flow cytometry, CHO transfectants, anti-human IgG
T3 construct: whole, on cells; co-transfected with DAP12; also called Human SIRPβ1 CHO
T3 sequence (O00241 30-398): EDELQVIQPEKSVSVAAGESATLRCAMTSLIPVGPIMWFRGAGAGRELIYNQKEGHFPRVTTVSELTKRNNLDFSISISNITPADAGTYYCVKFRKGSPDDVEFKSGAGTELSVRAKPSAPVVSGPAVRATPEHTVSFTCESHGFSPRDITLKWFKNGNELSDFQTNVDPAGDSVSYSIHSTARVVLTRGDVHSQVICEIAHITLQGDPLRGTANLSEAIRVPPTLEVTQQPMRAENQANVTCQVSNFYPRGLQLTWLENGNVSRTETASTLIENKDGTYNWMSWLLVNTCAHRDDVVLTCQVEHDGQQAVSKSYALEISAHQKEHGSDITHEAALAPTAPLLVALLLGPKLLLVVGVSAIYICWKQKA
Outline: as §1

[4] = biological target: T4, Cynomolgus Monkey SIRPγ (plate-coated extracellular domain); assay: ELISA, coated SIRP ECD (2 µg/mL), anti-human IgG, luminescence
T4 construct: also called Cyno SIRPγ
T4 extracellular domain: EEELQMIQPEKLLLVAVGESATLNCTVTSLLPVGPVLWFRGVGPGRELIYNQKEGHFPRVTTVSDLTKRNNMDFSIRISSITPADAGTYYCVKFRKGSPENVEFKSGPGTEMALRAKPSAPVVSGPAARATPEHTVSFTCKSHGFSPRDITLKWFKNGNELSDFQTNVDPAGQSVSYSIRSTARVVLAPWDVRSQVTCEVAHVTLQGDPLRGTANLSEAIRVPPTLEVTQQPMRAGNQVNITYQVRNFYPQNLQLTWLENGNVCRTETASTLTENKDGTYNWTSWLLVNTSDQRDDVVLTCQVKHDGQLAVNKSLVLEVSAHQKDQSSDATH
Outline: (§2)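 Plate-coated SIRP extracellular domain (2 μg/mL), blocked, then exposed to purified antibodies in titration, after transient expression in Expi293F cells for 5 days and Protein A purification. Bound antibody is detected with anti-human IgG and a chemiluminescent substrate, and reported as relative luminescence units.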

[5] = biological target: T5, extracellular binding domain of human SIRPγ (plate-coated) (human, UniProt Q9P1W8 29-360); assay: as above
T5 construct: also called hSIRPγ
T5 sequence (Q9P1W8 29-360 limits assumed): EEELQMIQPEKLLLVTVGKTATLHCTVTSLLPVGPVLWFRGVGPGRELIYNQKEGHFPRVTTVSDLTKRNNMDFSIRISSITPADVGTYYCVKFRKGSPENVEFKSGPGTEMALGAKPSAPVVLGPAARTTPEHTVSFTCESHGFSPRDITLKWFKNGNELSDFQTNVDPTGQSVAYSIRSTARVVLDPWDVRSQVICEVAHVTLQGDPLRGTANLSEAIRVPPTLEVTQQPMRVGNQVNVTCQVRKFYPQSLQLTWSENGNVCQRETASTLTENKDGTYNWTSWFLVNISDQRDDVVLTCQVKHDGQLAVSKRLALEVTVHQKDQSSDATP
Outline: as §2

[6] = biological target: T6, human SIRPγ on stably transfected CHO cells (human, UniProt Q9P1W8 29-387); assay: flow cytometry, CHO transfectants, anti-human IgG
T6 construct: also called Human SIRPγ CHO
T6 sequence (Q9P1W8 29-387 limits assumed): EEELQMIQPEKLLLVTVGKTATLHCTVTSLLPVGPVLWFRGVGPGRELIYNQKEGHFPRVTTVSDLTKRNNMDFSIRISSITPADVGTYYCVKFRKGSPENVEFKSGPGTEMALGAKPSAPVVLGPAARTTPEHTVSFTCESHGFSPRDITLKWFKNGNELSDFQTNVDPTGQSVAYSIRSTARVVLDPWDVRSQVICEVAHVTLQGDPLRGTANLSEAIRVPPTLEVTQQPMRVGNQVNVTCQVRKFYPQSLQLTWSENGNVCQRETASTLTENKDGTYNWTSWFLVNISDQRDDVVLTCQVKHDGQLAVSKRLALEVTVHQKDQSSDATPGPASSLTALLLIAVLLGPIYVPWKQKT
Outline: as §1

[7] = biological target: T7, human SIRPγ-His monomer protein (human, UniProt Q9P1W8 29-360); assay: BLI Octet, antibody on AHC, global 1:2 model
T7 construct: also called hSIRPγ
T7 sequence (Q9P1W8 29-360 limits assumed): as the sequence (Q9P1W8 29-360 limits assumed) above
Procedure: (§3) Antibodies were coated onto anti-human Fc capture (AHC) biosensors. SIRP-His monomer protein or bivalent SIRP protein with mouse Fc at four concentrations (200 nM, 100 nM, 50 nM, 25 nM) were exposed to the biosensor to measure on-rate kinetics of SIRP antibodies binding to SIRP protein. The biosensors were then exposed to wash buffer to measure off-rate kinetics. The resulting kinetic data were analyzed and fitted using a global 1:2 binding model.

[8] = biological target: T8, cynomolgus monkey SIRPγ-His monomer protein (cynomolgus monkey, UniProt Q9P1W8 29-359 (human entry), limits assumed); assay: BLI Octet, antibody on AHC, global 1:2 model
T8 construct: also called Cyno SIRPγ; Cyno SIRPγ-His
T8 chain: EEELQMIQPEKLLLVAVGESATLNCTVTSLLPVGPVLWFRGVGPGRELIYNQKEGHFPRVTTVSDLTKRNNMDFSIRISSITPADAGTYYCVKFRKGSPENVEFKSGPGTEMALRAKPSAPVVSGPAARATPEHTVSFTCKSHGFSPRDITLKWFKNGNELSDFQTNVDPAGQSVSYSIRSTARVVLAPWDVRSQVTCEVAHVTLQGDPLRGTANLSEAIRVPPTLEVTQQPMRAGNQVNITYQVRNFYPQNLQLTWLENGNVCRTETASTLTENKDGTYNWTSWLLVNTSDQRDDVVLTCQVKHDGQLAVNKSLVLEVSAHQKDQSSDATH
Procedure: as §3

[9] = biological target: T9, bivalent human SIRPγ protein with mouse Fc (human, UniProt Q9P1W8 29-360); assay: BLI Octet, antibody on AHC, global 1:2 model
T9 construct: also called Human SIRPγ-mFc
T9 sequence (Q9P1W8 29-360 limits assumed): as the sequence (Q9P1W8 29-360 limits assumed) above
Procedure: as §3

[10] = biological target: T5, extracellular binding domain of human …; assay: competition ELISA, coated SIRPγ ECD, antibody 1 h then 10 µg/mL biotinylated CD47-Fc (blocked ligand), streptavidin-HRP
Procedure: To carry out the competition experiment, the extracellular binding domain of SIRPγ was coated onto a high protein-binding plate and blocked. A titration of each SIRPγ antibody was incubated on the plate for 1 hour. […] Following a wash, streptavidin-HRP was added. The plate was washed again and developed using a chemiluminescent substrate. The plate was read on a plate reader to assess luminescence. […] A known blocker antibody was used as a positive control.

Row | Binder | EC50 (read off the curve) [1] | binding result [2] | binding result [3] | EC50 (read off the curve) [4] | EC50 (read off the curve) [5] | EC50 (read off the curve) [6] | Kd [7] | Kd [8] | Kd [9] | IC50 (read off the curve) [10]
1 | Antibody 79 (antibody, V domains shown) VH: QVQLVQSGAEVKKPGASVKVSCKASGYTFTSYYMHWVRQAPGQGLEWMGWMNPNSGNTGYAQKFQGRVTMTRDTSTSTVYMELSSLRSEDTAVYYCARDQMYSSYGMDVWGQGTTVTVSS VL: DIQMTQSPSSLSASVGDRVTITCRASESITNWLAWYQQKPGKAPKLLIYKASSLESGVPSRFSGSGSGTDFTLTISSLQPEDFATYYCQQSYGTPYTFGQGTKVEIK | ~0.5 µg/mL | no binding (tested: about 20 µg/mL) | no binding (tested: about 20 µg/mL) | ~0.06 µg/mL | ~0.03 µg/mL |  |  |  |  | 
2 | Antibody 80 (antibody, V domains shown) VH: QVQLVQSGAEVKKPGASVKVSCKASGYTFTRYDINWVRQAPGQGLEWMGWMNPNSGNTGYAQKLQGRVTMTRDTSTSTVYMELSSLRSEDTAVYYCARERVGYCSSTSCLHPLDYWGQGTLVTVSS VL: DIQMTQSPSSLSASVGDRVTITCRASQGIRNDLGWYQQKPGKAPKLLIYSASNLQSGVPSRFSGSGSGTDFTLTISSLQPEDFATYYCQQSYDVPLTFGGGTKVEIK | ~0.7 µg/mL | no binding (tested: about 20 µg/mL) | no binding (tested: about 20 µg/mL) | ~0.05 µg/mL | ~0.02 µg/mL | ~0.2 µg/mL |  |  |  | 
3 | Antibody 82 (antibody, V domains shown) VH: QVQLVQSGAEVKKPGASVKVSCKASGHTFNNNYIHWVRQAPGQGLEWMGIINPSGGSTSYAQKFQGRVTMTRDTSTSTVYMELSSLRSEDTAVYYCARQIQDYGYYYYGMDVWGQGTTVTVSS VL: EIVMTQSPATLSVSPGERATLSCRASQSVSKYLAWYQQKPGQAPRLLIYAISARAAGIPARFSGSGSGTEFTLTISSLQSEDFAVYYCQQYYSSPPTFGQGTKVEIK | ~0.7 µg/mL | no binding (tested: about 20 µg/mL) | no binding (tested: about 20 µg/mL) | ~0.03 µg/mL | ~0.01 µg/mL |  |  |  |  | 
4 | Antibody 57 (antibody, V domains shown) VH: QVQLVQSGAEVKKPGASVKVSCKASGYTFTSYYMHWVRQAPGQGLEWMGWINPNSGNAGFAQKFQGRVTMTRDTSTSTVYMELSSLRSEDTAVYYCARGPVYSYGPFDYWGQGTLVTVSS VL: DIQMTQSPSSLSASVGDRVTITCRASQGISTYLAWYQQKPGKAPKLLIYAASTLQSGVPSRFSGSGSGTDFTLTISSLQPEDFATYYCQQSHSAPITFGQGTKVEIK | ~0.4 µg/mL | no binding (tested: about 20 µg/mL) | no binding (tested: about 20 µg/mL) |  |  | ~0.6 µg/mL |  |  |  | 
5 | Antibody 60 (antibody, V domains shown) VH: EVQLLESGGGLVQPGGSLRLSCAASGFTLGSYWMHWVRQAPGKGLEWVSLISWDGGSTYYADSVKGRFTISRDNSKNTLYLQMNSLRAEDTAVYYCAKGPWVGYSGYDLNYYYYGMDVWGQGTTVTVSS VL: DIQMTQSPSSLSASVGDRVTITCRASQDIRRALAWYQQKPGKAPKLLIYAASSLQSGVPSRFSGSGSGTDFTLTISSLQPEDFATYYCLQHNSYPPTFGQGTKLEIK | ~0.7 µg/mL | no binding (tested: about 20 µg/mL) | no binding (tested: about 20 µg/mL) | ~0.03 µg/mL | ~0.02 µg/mL | ~0.9 µg/mL |  |  |  | 
6 | Antibody 69 (antibody, V domains shown) VH: QVQLVQSGAEVKKPGASVKVSCKASGYTFTSYYMHWVRQAPGQGLEWMGWMNPNSDNTGYAQKFQGRVTMTRDTSTSTVYMELSSLRSEDTAVYYCARVGVGYGYYYYGMDVWGQGTTVTVSS VL: DIQMTQSPSSLSASVGDRVTITCRAGQSIGDYLNWYQQKPGKAPKLLIYAASSLQSGVPSRFSGSGSGTDFTLTISSLQPEDFATYYCQQSYSTPWTFGQGTKVEIK | ~0.6 µg/mL | no binding (tested: about 20 µg/mL) | no binding (tested: about 20 µg/mL) |  |  | ~0.5 µg/mL |  |  |  | 
7 | Antibody 96 (antibody, V domains shown) VH: QVQLVQSGAEVKKPGASVKVSCKASGYTFTRYDINWVRQAPGQGLEWMGWMNPNSGNTGYAQKLQGRVTMTRDTSTSTVYMELSSLRSEDTAVYYCARERVGYCSSTSCLHPLDYWGQGTLVTVSS VL: DIQMTQSPSSLSASVGDRVTITCRASQGIRNDLGWYQQKPGKAPKLLIYSASNLQSGVPSRFSGSGSGTDFTLTISSLQPEDFATYYCQQSYDVPLTFGGGTKVEIK | ~0.6 µg/mL | no binding (tested: about 30 µg/mL) | no binding (tested: about 30 µg/mL) |  |  | ~0.4 µg/mL | 70.3 nM | 211 nM | 21.5 nM | 
8 | Antibody 83 (antibody, V domains shown) VH: QVQLVQSGAEVKKPGASVKVSCKASGYSFSDYYMHWVRQAPGQGLEWMGWMSPNSGNTGYAQKFQGRVTMTRDTSTSTVYMELSSLRSEDTAVYYCARQREEYGHYYYGMDVWGQGTMVTVSS VL: EIVMTQSPATLSVSPGERATLSCRASQSLGSTYLAWYQQKPGQAPRLLIYGASTRATGIPARFSGSGSGTEFTLTISSLQSEDFAVYYCQQYYSSPPTFGQGTKVEIK |  | no binding (tested: about 30 µg/mL) | no binding (tested: about 30 µg/mL) |  |  |  | 174 nM | 11.7 nM | 53.2 nM | ~0.2 µg/mL
9 | Antibody 90 (antibody, V domains shown) VH: QVQLVQSGAEVKKPGASVKVSCKASGYTFTSYYMHWVRQAPGQGLEWMGWMNPNSDNTGYAQKFQGRVTMTRDTSTSTVYMELSSLRSEDTAVYYCARVGVGYGYYYYGMDVWGQGTTVTVSS VL: DIQMTQSPSSLSASVGDRVTITCRAGQSIGDYLNWYQQKPGKAPKLLIYAASSLQSGVPSRFSGSGSGTDFTLTISSLQPEDFATYYCQQSYSTPWTFGQGTKVEIK |  | no binding (tested: about 30 µg/mL) | no binding (tested: about 30 µg/mL) |  |  |  | 175 nM | 69.2 nM | 87.6 nM | ~0.2 µg/mL
